# US20120213774A1 (Hoffmann-La Roche, published 2012)
# T1: human IL33R (ST2) on human cells (human, UniProt Q01638 19-556)
# T1 sequence (looked up): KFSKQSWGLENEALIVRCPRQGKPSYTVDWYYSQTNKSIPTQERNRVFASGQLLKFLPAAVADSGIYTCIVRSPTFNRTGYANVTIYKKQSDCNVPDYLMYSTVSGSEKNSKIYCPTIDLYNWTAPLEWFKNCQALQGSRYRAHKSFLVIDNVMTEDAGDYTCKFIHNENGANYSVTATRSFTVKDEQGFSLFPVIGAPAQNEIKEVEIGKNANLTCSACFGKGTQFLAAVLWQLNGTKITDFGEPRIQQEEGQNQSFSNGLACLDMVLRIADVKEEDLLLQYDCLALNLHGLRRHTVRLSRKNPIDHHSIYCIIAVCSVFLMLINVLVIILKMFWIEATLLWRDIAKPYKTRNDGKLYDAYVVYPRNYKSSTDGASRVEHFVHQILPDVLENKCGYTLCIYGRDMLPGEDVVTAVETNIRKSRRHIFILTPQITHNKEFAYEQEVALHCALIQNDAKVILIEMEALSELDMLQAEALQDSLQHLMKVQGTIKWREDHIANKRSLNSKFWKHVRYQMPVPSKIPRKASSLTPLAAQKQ
# T2: recombinant human ST2/IL-1R4 Fc chimera (R&D Systems, Cat. No. 523-ST) (human, UniProt Q01638 19-328)
# T2 construct: Bought product; also called ST2/IL-1R4 protein; not shown: Fc part of the bought chimera (captured by anti-human IgG Fc)
# T2 sequence (looked up): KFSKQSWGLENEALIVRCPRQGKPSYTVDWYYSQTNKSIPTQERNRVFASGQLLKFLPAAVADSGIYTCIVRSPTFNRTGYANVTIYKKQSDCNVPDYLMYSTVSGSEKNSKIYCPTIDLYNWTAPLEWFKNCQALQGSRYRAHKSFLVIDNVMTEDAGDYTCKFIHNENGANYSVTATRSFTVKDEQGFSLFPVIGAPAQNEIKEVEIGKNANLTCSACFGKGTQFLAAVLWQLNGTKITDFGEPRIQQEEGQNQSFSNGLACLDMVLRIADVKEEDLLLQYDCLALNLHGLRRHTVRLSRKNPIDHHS
# T3: Monomeric human ST2 ECD with 6His Avitag (human, UniProt Q01638 19-328)
# T3 construct: extracellular domain; also called human ST2 ECD (His-Avitag monomer); not shown: 6His Avitag
# T3 sequence (looked up): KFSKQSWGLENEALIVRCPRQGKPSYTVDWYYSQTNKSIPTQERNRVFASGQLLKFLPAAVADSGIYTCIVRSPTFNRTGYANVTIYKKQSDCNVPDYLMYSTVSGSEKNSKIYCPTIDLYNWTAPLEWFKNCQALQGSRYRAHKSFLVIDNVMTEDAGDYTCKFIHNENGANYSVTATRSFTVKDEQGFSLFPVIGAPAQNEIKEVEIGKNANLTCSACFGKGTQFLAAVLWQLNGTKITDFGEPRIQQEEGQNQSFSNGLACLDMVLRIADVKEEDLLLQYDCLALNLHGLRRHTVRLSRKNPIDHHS
# B1: Antibody ra170 (rabbit IgG1) (antibody, V domains shown)
# VH: QSVEESGGRLVTPGTPLTLTCTVSGFSLSSHDMSWVRQAPGKGLEWIGYIWSDDNTYYASWAKGRFTISKTSTTVDLKITSPTTEDTATYFCARDQYRSSGVSDYDIWGPGTLVTVSS
# VL: AAVLTQTPSPVSAAVGGTVTISCQSSQSVGNNNDLAWYQQKPGQPPKILIYKASTLASGVPSRFEGSGSGTQFTLTISDVQCDDAATYYCLGGYDDDADNTFGGGTEVVVK
# notes: Rabbit monoclonal from B cell cloning; they are assigned to this molecule; also called Mab ra170; clone Ra170
# B2: ra170 IgG4 SPLE (antibody, V domains shown)
# VH: QSVEESGGRLVTPGTPLTLTCTVSGFSLSSHDMSWVRQAPGKGLEWIGYIWSDDNTYYASWAKGRFTISKTSTTVDLKITSPTTEDTATYFCARDQYRSSGVSDYDIWGPGTLVTVSS
# VL: AAVLTQTPSPVSAAVGGTVTISCQSSQSVGNNNDLAWYQQKPGQPPKILIYKASTLASGVPSRFEGSGSGTQFTLTISDVQCDDAATYYCLGGYDDDADNTFGGGTEVVVKR
# B3: humanized ra170 10.12 (antibody, V domains shown)
# VH: VQLVQSGAEVKKPGASVKVSCKASGFSLSSHDISWVRQAPGQGLEWMGYIWSDENTYYASWAQGRVTMTTDTSTSTAYMELRSLRSDDTAVYYCARDQYRSSGVSDYDIWGPGTLVTVSS
# VL: AAVMTQSPATLSVSPGERATLSCRSSQSVGNNNDLAWYQQKPGQAPRLLIYKASTRATGIPARFSGSGSGTEFTLTISSLQSEDFAVYYCLGGYDDDADNTFGGGTKVEIK
# B4: humanized ra170 11.12 (antibody, V domains shown)
# VH: VQLVQSGAEVKKPGASVKVSCKASGFSLSSHDISWVRQAPGQGLEWMGYIWSDESTYYASWAQGRVTMTTDTSTSTAYMELRSLRSDDTAVYYCARDQYRSSGVSDYDIWGPGTLVTVSS
# VL: AAVMTQSPATLSVSPGERATLSCRSSQSVGNNNDLAWYQQKPGQAPRLLIYKASTRATGIPARFSGSGSGTEFTLTISSLQSEDFAVYYCLGGYDDDADNTFGGGTKVEIK
# Assays:
# [1] = biological target: T1, human IL33R (ST2) on human cells; assay: cell-based or functional assay
# [2] = biological target: cynomolgus IL33R (ST2) on cynomolgus NK cells (cynomolgus); assay: cell-based or functional assay
# [3] = biological target: T1, human IL33R (ST2) on human cells; assay: cell-based or functional assay; remark: listed apart in the source
# [4] = biological target: T4, recombinant cyno ST2 Fc chimera (cynomolgus); assay: competition ELISA: antibody against biotinylated human IL33 on captured cyno ST2 Fc chimera
# T4 construct: also called cynomolgus ST2
# Procedure: (§1) The test was performed on 384 well MaxiSorp™ microtiter plates (Sigma-Aldrich, Nunc. DE, Cat. No. 464718) at RT. After each incubation step plates were washed 3 times with PBST (Phosphate Buffered Saline Tween®-20). […] Thereafter the wells were blocked with PBS supplemented with 0.1% Tween®-20 and 2% BSA (Roche Diagnostics GmbH, DE) for 1 h. […] Dilutions of purified antibodies or supernatants from hybridoma/B-cells in PBS with 0.5% BSA and 0.05% Tween®-20 were incubated with the receptor protein for 1 h. Biotinylated human IL33 (PeproTech, US, Cat No. 500-P261) was added for an additional hour to build up the complex. IL33 was biotinylated with Sulfo-NHS-LC-Biotin (Thermo Scientific Pierce, US, Cat. No. 21327) according to the manufacturer's protocol and purified using Zeba™ Desalt Spin Column (Thermo Scientific Pierce, US, Cat. No. 89889). Binding of the biotinylated IL33 to the complex was detected with 1:4000 diluted streptavidin HRP (Roche Diagnostics GmbH, DE, Cat. No. 11089153001). After 1 h the plates were washed 6 times with PBST and developed with freshly prepared BM blue POD substrate solution (BM blue: 3,3′-5,5′-Tetramethylbenzidine, Roche Diagnostics GmbH, DE, Cat. No. 11484281001) for 12 minutes at RT. Absorbance was measured at 370 nm. […]
# [5] = biological target: T2, recombinant human ST2/IL-1R4 Fc chimera …; assay: competition ELISA: antibody against biotinylated human IL33 on captured human ST2/IL-1R4 Fc chimera
# Procedure: as §1
# [6] = biological target: T3, Monomeric human ST2 ECD with 6His Avitag; assay: SPR (BIACORE T100, 37 C, pH 7.4), antibody captured by anti-human Fc, monomeric ST2 ECD in solution
# Procedure: (§2) Monomeric human ST2 ECD with 6His Avitag™ (Avidity, LLC, US) was added in various concentrations in solution. Association was measured by injection of ST2 ECD for a contact time of 120 sec. (single cycle-kinetic) at 37° C.; dissociation was measured by washing the chip surface with buffer for 1800 sec. at 37° C. For calculation of apparent KD and other kinetic parameters the Langmuir 1:1 model was used.
# [7] = biological target: T3, Monomeric human ST2 ECD with 6His Avitag; assay: SPR (BIACORE T100, 37 C, pH 7.4), antibody captured by anti-human Fc, monomeric ST2 ECD in solution, apparent KD, 1:1 model
# Procedure: as §2
Binder,"IC50, GM-CSF release of KU812 basophil cells stimulated with IL33 [1] [nM]","IC50, IFN-γ secretion by human NK cells stimulated with IL33 and IL-12 [1] [nM]","IC50, IL-5 release of KU812 basophil cells stimulated with IL33 [1] [nM]","IC50, IL-5 release of human Th2 cells restimulated with IL33 [1] [nM]","IC50, IL-5 release of primary mast cells stimulated with IL33 [1] [nM]","IC50, IL-13 release of KU812 basophil cells stimulated with IL33 [1] [nM]","IC50, IL-13 release of human Th2 cells restimulated with IL33 [1] [nM]","IC50, IL-13 release of primary mast cells stimulated with IL33 [1] [nM]","IC50, eosinophil viability (IL33 dependent survival) [1] [nM]","IC50, IFNγ release of cynomolgus NK cells stimulated with human IL33 and cynomolgus IL-12 [2] [nM]",NFkB IC50 [3] [nM],IC50 [4] [nM],IC50 [5] [nM],koff [6] [s⁻¹],kon [6] [M⁻¹ s⁻¹],t1/2 [6] [min],Kd [7] [nM]
B1,1.31,0.27,1.48,2.77,≤ 0.2,3.49,1.1,≤ 0.4,1.3,0.109,0.025,0.13,0.32,,,,
B2,,,,,,,,,,,,,,1.3e-05,4.6e+06,881,0.0027
B3,,1.3,,,,,,,,,0.28,,,0.0051,4.9e+06,2,1.1
B4,,1.8,,,,,,,,,0.04,,,0.00043,3.1e+06,27,0.14
